# B1: TGTGTATAAAGGGGCGGTGAAAAGCGAAT (nucleic acid)
# DNA: ATCCACGAGTGACGCAGCACAGTGATCAGTTGTGTATAAAGGGGCGGTGAAAAGCGAATTCCAGTCGACTGGACACGGTGGCTTAGT
# modifications: listed as DNA, chemistry not given here
# notes: TIC-specific DNA aptamer
# B2: AAAGCTCCTTGGAATAGTCTAATACCGGA (nucleic acid)
# DNA: ATCCACGAGTGACGCAGCACGAGCAACACAAAAGCTCCTTGGAATAGTCTAATACCGGAGCGAGAAAGCTGGACACGGTGGCTTAGT
# modifications: listed as DNA, chemistry not given here
# notes: TIC-specific DNA aptamer
# B3: CCGTAGCTACGACGGAGGAAACTATGTTA (nucleic acid)
# DNA: ATCCACGAGTGACGCAGCATGTTTAGGAAACCGTAGCTACGACGGAGGAAACTATGTTAAACATCCCCATGGACACGGTGGCTTAGT
# modifications: DNA, backbone and methylation of C not given here
# notes: TIC-specific DNA aptamer
# B4: AGAACTGGCCTTACTACGAAAAGTCCTTG (nucleic acid)
# DNA: ATCCACGAGTGACGCAGCACCGAGAGGAGAGAACTGGCCTTACTACGAAAAGTCCTTGGTTGCCAGGGGTGGACACGGTGGCTTAGT
# modifications: listed as DNA, chemistry not given here
# notes: TIC-specific DNA aptamer
# B5: GACGAGCTAAGAACCTTTAGGAGTGGAAA (nucleic acid)
# DNA: ATCCACGAGTGACGCAGCACAGAGTGGAAGACGAGCTAAGAACCTTTAGGAGTGGAAAAGATAGCTCATGGACACGGTGGCTTAGT
# modifications: DNA, backbone and methylation of C not given here
# notes: TIC-specific DNA aptamer
# Legend:
# [1] = test system: GS5, a well-characterized TIC line; test: GS5 proliferation; format: cell-based
# GS5 = GS5 sphere formation (TIC self-renewal); format: cell-based
# Description: (§2) We further evaluated whether this drug delivery system can be used to treat TIC-derived tumors. […] We successfully encapsulated DI into our brain-penetration nanoparticles, which were administrated via a single infusion into rat brains bearing GS5-derived tumors.
# CD133+ cell population = test: CD133+ cell population; format: cell-based
# Description: as §2
# GS5-derived tumors = test: Survival of rats bearing GS5-derived brain tumors after a single infusion; format: in vivo; conditions: single infusion into rat brains bearing GS5-derived tumors
# Description: as §2
# [2] = test system: ReNCell CX immortalized human neural progenitors or primary human fetal neural progenitors; test: Flow cytometry aptamer binding to non-neoplastic neural progenitors
# Description: (§1) Each FITC-labeled aptamer candidate was incubated with TICs or non-TICs in binding buffer on ice for 30 min. The cells were washed three times with binding buffer, and the pellets with the bound sequences were resuspended in 200 μL binding buffer. The fluorescence intensity was determined with a LSR II (BD Immunocytometry Systems) by counting 10,000 events. The FITC-labeled unselected single strand DNA library was used as a negative control. To determine the specificity of the selected aptamers, aptamer binding to additional GBM cells (08-322, 4121, U87MG) or neural progenitors (RenCell c-myc immortalized human neural progenitors, Millipore; human fetal neural progenitors, Lonza) was determined. For determination of aptamer binding to differentiated TICs, TICs were plated on Geltrex-coated plates in the presence of 10% serum and harvested after five days for FACS analysis.
# [3] = test system: GBM cells from GBM1 (08-387), GBM2 (4121), GBM3 (08-322), GBM4 (3691) xenografts; test: Neurosphere formation assay of aptamer-high vs aptamer-low GBM cells; format: cell-based, human; conditions: four GBMs tested
# Description: After overnight recovery of GBM cells from tissue dissociation, each Cy5-labeled aptamer was incubated with each specimen for 30 min. After washing thrice, labeled GBM cells were subjected to cell sorting. For the sphere formation assay, 10 cells of either aptamer^high and aptamer^low GBM cells sorted by FACS were directly plated into each well of a six well plate containing 200 μL of TIC culturing medium similar to our prior descriptions. After 10 to 14 days, the number of tumorspheres in each well was counted and plotted. For the cell proliferation assay, aptamer^high and aptamer^low GBM cells were sorted into each 15 mL tube, and equal numbers of cells were plated into 96 wells. Differences in cell growth were measured using Cell-Titer Glow (Promega™) according to the manufacturer's instructions and prior reports. Hjelmeland et al., PLoS biology, 8:e1000319 (2010); Li et al., Cancer cell, 15:501-13 (2009).
# [4] = test system: GBM1 (08-387) cells injected intracranially; test: In vivo tumorigenic potential of aptamer-high vs aptamer-low GBM cells; set-up: species or system mice; conditions: for tumor incidence, aptamer-high cells / tumor incidence, aptamer-low cells: 300 cells implanted; for survival of mice injected with aptamer-high cells: 3000 or 300 cells intracranially, vs aptamer-low cells
# Description: To determine tumorigenic potential, 300 or 3000 viable aptamer^high or aptamer^low GBM cells were intracranially injected into athymic/nude immunocompromised mice as we have previously described. Animals were maintained until the development of neurological signs including lethargy, seizure, ataxia, or paralysis or for a maximum of 60 days, when they were sacrificed. All animal procedures were performed in accordance with a Cleveland Clinic IACUC approved protocol.
# TICs = test: Flow cytometry to monitor aptamer binding to TICs; set-up: species or system human; conditions: GBM1, GBM2, GBM3
# Description: as §1
# To further evaluate the specificity of TIC-enriched aptamers, the fold change in fluorescence was calculated. Fluorescence shift was calculated using the equation (Faptamer−Fcell)/(Flibrary−Fcell), where Faptamer, Flibrary and Fcell refers to the fluorescence value of the aptamer, library, and cell itself. Using this calculation, specificity of aptamers A2-A6 for TICs in comparison to non-TICs was shown for all three GBMs tested (FIG. 2A-C).
Molecule,neurosphere formation capacity of aptamer-enriched cells [3],"tumor incidence, aptamer-high cells [4]","tumor incidence, aptamer-low cells [4]",survival of mice injected with aptamer-high cells [4],other results
"CCN1/C(=C/C=C/C=C/c2sc3ccccc3[n+]2CC)Sc2ccccc21 [DI, dithiazanine iodide]",–,–,–,–,IC50 [1]: 79 nM; inhibition of GS5 sphere formation (GS5): 94%; decrease of the CD133+ cell population (CD133+ cell population): 57%; median survival (GS5-derived tumors): 177 days
B1,greater neurosphere formation capacity in three of four GBMs tested,All mice,2 of 4,significantly reduced,binding to nonneoplastic neural progenitors [2]: bound both sets of non-neoplastic brain cells
B2,significantly segregated cells with neurosphere formation capacity in all four GBMs tested,All mice,3 of 4,significantly reduced,–
B3,significantly segregated cells with neurosphere formation capacity in all four GBMs tested,–,–,–,–
B4,significantly segregated cells with neurosphere formation capacity in all four GBMs tested,–,–,–,–
B5,greater neurosphere formation capacity in three of four GBMs tested,–,–,–,"fluorescence shift (Faptamer−Fcell)/(Flibrary−Fcell): specificity for TICs in comparison to non-TICs (TICs): greater binding to TICs in GBM1 and GBM2, but not GBM3"

# Source: patent US9731032B2, “Aptamers for tumor initiating cells” (THE CLEVELAND CLINIC FOUNDATION, priority 2013, dated 2017)
